# Measurements: publication PMC8248388
# Experiments:
# FcγRIIIa F176 [1] = target: FcγRIIIa F176 (UniProt P08637); test: SPR; Biacore T200, 25°C, HBS-EP+; His-tagged FcγR captured by anti-His antibody on a CM5 chip, rituximab injected; single-cycle kinetics, five concentrations, 600 s dissociation; 1:1 binding model, KD from kd/ka
# FcγRI [2] = target: FcγRI (UniProt P12314); test: as above
# FcγRIIIa V176 [3] = target: FcγRIIIa V176 (UniProt P08637); test: SPR; Biacore T200, 25°C, HBS-EP+; anti-His antibody amine-coupled on a CM5 chip captures the His-tagged FcγR; rituximab injected at five increasing concentrations (150 s, 30 µl/min), single-cycle kinetics, dissociation 600 s; 1:1 binding model, KD from kd/ka
# FcγRIIIa F176 [4] = target: FcγRIIIa F176 (UniProt P08637); test: as above
# FcγRIIb [5] = target: FcγRIIb (UniProt P31994); test: SPR; Biacore T200, 25°C, HBS-EP+; His-tagged FcγRIIb captured by anti-His antibody on a CM5 chip (404 RU), rituximab injected at 375-6000 nM; steady-state model, report points 15 s after injection start
# FcγRIIIa V176 [6] = target: FcγRIIIa V176 (UniProt P08637)
# FcγRIIb [7] = target: FcγRIIb (UniProt P31994); test: SPR; Biacore T200, 25°C, HBS-EP+; anti-His antibody on a CM5 chip captures His-tagged FcγRIIb (404 RU); rituximab 375-6000 nM injected; steady-state model, report points 15 s after injection start
# FcγRI [8] = target: FcγRI (UniProt P12314); test: SPR; Biacore T200, 25°C, HBS-EP+; anti-His antibody amine-coupled on a CM5 chip captures the His-tagged FcγR; rituximab injected at five increasing concentrations (150 s, 30 µl/min), single-cycle kinetics, dissociation 600 s; 1:1 binding model, KD from kd/ka
# Chain of UniProt P12314 (P12314 16-292): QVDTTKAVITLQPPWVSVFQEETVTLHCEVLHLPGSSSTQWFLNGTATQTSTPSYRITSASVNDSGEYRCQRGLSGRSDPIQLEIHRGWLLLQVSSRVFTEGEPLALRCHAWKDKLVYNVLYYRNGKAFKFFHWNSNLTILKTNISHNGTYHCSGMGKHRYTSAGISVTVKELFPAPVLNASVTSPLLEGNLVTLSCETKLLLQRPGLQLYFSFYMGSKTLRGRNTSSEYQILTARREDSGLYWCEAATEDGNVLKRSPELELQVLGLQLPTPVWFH
# Chain of UniProt P31994 (P31994 43-217): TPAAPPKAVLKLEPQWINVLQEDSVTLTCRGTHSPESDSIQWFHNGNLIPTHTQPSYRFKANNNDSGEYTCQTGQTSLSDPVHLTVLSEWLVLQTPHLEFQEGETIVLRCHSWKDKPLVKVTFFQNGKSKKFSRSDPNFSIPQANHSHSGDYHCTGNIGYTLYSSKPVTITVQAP
Substance,Kd (FcγRIIIa F176 [1]),Kd (FcγRI [2]),Kd (FcγRIIIa V176 [3]),Kd (FcγRIIIa F176 [4]),Kd (FcγRIIb [5]),"EC50 of the ADCC Reporter Bioassay (Promega G7015); Day 7 samples from 200, 400 and 800 µM ThioFuc (38, 34, 37 ng/mL); FcγRIIIa variant on the effector cells not stated (FcγRIIIa V176 [6])",Kd (FcγRIIb [7]),Kd (FcγRI [8]),"EC50 of the ADCC Reporter Bioassay (Promega G7015): Raji target cells, engineered Jurkat effector cells, luciferase; FcγRIIIa variant on the effector cells not stated (FcγRIIIa V176 [6])"
modified rituximab (46% afucosylation and 48% thiofucosylation) (antibody),72 nM,11.3 nM,13 nM,70 nM,893 nM,38 ng/mL,908 nM,–,–
rituximab (8.5% afucosylation) (antibody),–,14 nM,–,–,–,–,–,12 nM,87 ng/mL
